These results are taken from paper PMC3082007, “The microRNA cluster miR-106b~25 regulates adult neural stem/progenitor cell proliferation and neuronal differentiation”.

The target of this data set is FoxO3-GST (human, UniProt O43524 1-673). Nature of the data set: EMSA; 5 nM probe; 50 ng/ul protein; Binding Buffer as printed: 200 mM Tris-HCl pH 7.5, 200 mM KCl, 200 mM MgCl2, 2% NP-40, 10% glycerol, 5 mM DTT, 500 ng/ul salmon sperm DNA (possibly a stock concentration); room temperature 20 min; 4% native PAGE at 4 C. Particulars: protein: recombinant; tags: GST; label: 32P; blunt.
Chain of FoxO3-GST (O43524 whole entry): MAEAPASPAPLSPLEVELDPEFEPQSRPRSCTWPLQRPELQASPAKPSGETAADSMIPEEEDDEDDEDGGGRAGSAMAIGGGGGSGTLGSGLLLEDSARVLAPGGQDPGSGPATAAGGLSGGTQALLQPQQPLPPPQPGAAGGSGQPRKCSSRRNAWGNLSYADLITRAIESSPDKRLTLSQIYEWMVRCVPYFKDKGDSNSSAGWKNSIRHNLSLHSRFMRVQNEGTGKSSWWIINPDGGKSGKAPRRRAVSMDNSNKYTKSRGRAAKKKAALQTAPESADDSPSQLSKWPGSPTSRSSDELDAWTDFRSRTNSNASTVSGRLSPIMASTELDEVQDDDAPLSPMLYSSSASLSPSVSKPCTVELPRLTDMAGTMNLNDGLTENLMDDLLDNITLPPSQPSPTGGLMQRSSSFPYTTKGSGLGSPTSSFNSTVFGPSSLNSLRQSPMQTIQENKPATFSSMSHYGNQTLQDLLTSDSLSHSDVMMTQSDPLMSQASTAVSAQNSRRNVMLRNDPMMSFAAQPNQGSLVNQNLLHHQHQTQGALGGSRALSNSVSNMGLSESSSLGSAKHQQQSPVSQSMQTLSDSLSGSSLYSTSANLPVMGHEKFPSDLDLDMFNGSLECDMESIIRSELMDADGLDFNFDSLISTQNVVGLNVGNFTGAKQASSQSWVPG

B1: FHRE WT (miR-106b~25/Mcm7 intron 1) (dsDNA)
DNA 1: GGCCCATGTGCTTCTTTGTTTACTAAGAGCGGAAGCAG
DNA 2: CTGCTTCCGCTCTTAGTAAACAAAGAAGCACATGGGCC
On to B1, for which the binding result was “binds”.
